We go through twelve molecules from US20090155239A1, “Novel Protease, Microorganism Producing the Same, and Application Thereof” (SODX CO., LTD., priority 2005, published 2009).

Read-outs that look alike come from different tables or passages of the source. Where a SMILES comes first, the peptide text is derived from it. [ ]: non-standard residue; d: D form. The star is where a group is joined. Sta = CC(C)C[C@H](N)[C@@H](O)CC(=O)O; Isovaleryl = CC(C)CC(=O)*

In data set [1] the test system is protease of the present invention. Type of data set: biochemical, Fusarium sp. strain BLB. The settings on record: for Relative Activity (%): pH 5.
The conditions of data set [2]: substrate H-D-Val-Leu-Lys-pNA; H-D-Ile-Pro-Arg-pNA taken as 100.
For the next data set, the system named is mice. In words: Acute toxicity test on mice.
For data set [3] the following is noted: substrate Suc-Ala-Ala-Pro-Leu-pNA; H-D-Ile-Pro-Arg-pNA taken as 100.
A further data set deals with fibrin. In words: Fibrin plate method. Type of data set: biochemical, bovine.
For data set [4] the following is noted: substrate Gle-Phe-pNA; H-D-Ile-Pro-Arg-pNA taken as 100.
In a further data set the test system is Hammarsten casein. In words: Casein method. Type of data set: biochemical. The settings on record: final purified product of Example 2. The procedure:
A 0.5 ml quantity of sample (protease solution) is added to 1.5 ml of Hammarsten casein solution, prepared using 100 mM boric acid buffer (pH 10) so as to have a final concentration of 1 wt. %, and a reaction is carried out at 37° C. for 10 minutes. The reaction is terminated by adding 2 ml of 0.44 M trichloroacetic acid solution. After allowing the reaction mixture to stand for 20 minutes, the precipitate is filtered off. Five milliliters of 0.44 M aqueous sodium carbonate solution and 1 ml of phenol reagent (containing, per 100 ml, 9.1 g of sodium tungstate dihydrate, 2.3 g of sodium molybdate dihydrate, 4.5 ml of phosphoric acid, 9.1 ml of hydrochloric acid, and 13.6 g of lithium sulfate) are added in that order. After allowing the resulting mixture to stand for 20 minutes, the absorbance at an absorption wavelength of 660 nm is measured. In the above measurement, the amount of enzyme that liberates, per minute, an acid-soluble protein hydrolysate corresponding to 1 μg of tyrosine is defined as 1 unit.

The conditions of data set [5]: substrate Suc-Ala-Ala-Pro-Phe-pNA; H-D-Ile-Pro-Arg-pNA taken as 100.
For data set [6] the following is noted: substrate H-D-Ile-Pro-Arg-pNA, taken as 100.
The nature of data set [7]: Synthetic substrate method, substrate specificity. Type of data set: biochemical. The conditions noted are these: substrate Bz-L-Arg-pNA.

Turning to `c1cnc2c(c1)ccc1cccnc12` [Phenanthroline], the “Relative Activity (%)” value in data set [1] was 100%.

Consider `CC(C)CC(=O)N[C@H](C(=O)N[C@H](C(=O)N[C@@H](CC(C)C)[C@@H](O)CC(=O)N[C@@H](C)C(=O)N[C@@H](CC(C)C)[C@@H](O)CC(=O)O)C(C)C)C(C)C` [Pepstatin] (Isovaleryl-VV[Sta]A[Sta]-OH), for which the “Relative Activity (%)” value in data set [1] is given as 100%.

With Streptomyces pepsin inhibitor [SPI], in data set [1], the “Relative Activity (%)” value came out at 100%.

As to `NCCCCCC(=O)O` [ε-ACA, ε-aminocaproic acid], in data set [1], the “Relative Activity (%)” value amounted to 100%.

Regarding `CC(C)C[C@H](NC(=O)[C@H]1O[C@@H]1C(=O)O)C(=O)NCCCCN=C(N)N` [E-64, t-epoxysuccinyl-L-leucylamide(4-guanidino)butane], the “Relative Activity (%)” value in data set [1] is listed as 97%.

With `O=S(=O)(F)Cc1ccccc1` [PMSF, phenylmethylsulfonyl fluoride], in [1], the “inhibition of the protease (in words)” value is listed as “inhibited” and the “Relative Activity (%)” value came to 59%.

Take `O=C(O)CN(CCN(CC(=O)O)CC(=O)O)CC(=O)O` [EDTA, ethylenediaminetetraacetic acid]: in data set [1], the “Relative Activity (%)” value was 100%.

On to `c1ccc(-c2ccccn2)nc1` [2,2′-Bipyridyl], for which, in [1], the “Relative Activity (%)” value stood at 97%.

With Chimostatin, the “Relative Activity (%)” value in data set [1] was found to be 100%.

B1: Streptomyces subtilisin inhibitor (protein)
chain: DAPSALYAPSALVLTVGKGVSATTAAPERAVTLTCAPGPSGTHPAAGSACADLAAVGGDLNALTRGEDVMCPMVYDPVLLTVDGVWQGKRVSYERVFSNECEMNAHGSSVFAF
Take B1: in [1], the “Relative Activity (%)” value is on record as 100%.

B2: protease of the present invention: novel trypsin-type serine protease from Fusarium sp. strain BLB, about 27000 on SDS-PAGE, amino acid sequence SEQ ID NO: 1 (protein, listed as Fusarium sp.)
chain: MVKFATIVALVAPLVAARPQDRPLIVGGTAASAGDFPFIVSISYQGGPWCGGTLLNANTVLTAAHCTSGRAASAFQVRAGSLNRNSGGVTSSVSSIRIHPSFSSSTLNNDVSILKLSTPIASSSTISYGRLAASGSDPAAGSSATVAGWGATAQGSPSSPVALRKVTIPIVSRATCRAQYGTSAITTNMFCAGLEEGGKDSCQGDSGGPIVDTSNTVIGIVSWGEGCAQPNFSGVYARVGTLRSYIDGQL
On to B2, for which the “Relative Activity (%)” value in data set [2] was 21%; in data set [3] it was 0%; in data set [4] it was 0%; in [5] it was 0%; in data set [6], 100%; in data set [7] (H-D-Ile-Pro-Arg-pNA taken as 100), 2.8%. Also, in the data set with mice, the “safety in acute toxicity test” value is listed as “demonstrated the safety”. Further, in the data set on fibrin, the “fibrinolytic activity (in words)” value is on record as “strong fibrinolytic activity”. Moreover, in the data set with Hammarsten casein, the “protease activity by the casein method” value is given as 634 U/mg. The “degrading activity on synthetic substrate (in words)” value in data set [7] is “has degrading activity”.

B3: soybean trypsin inhibitor (protein)
chain: DFVLDNEGNPLENGGTYYILSDITAFGGIRAAPTGNERCPLTVVQSRNELDKGIGTIISSPYRIRFIAEGHPLSLKFDSFAVIMLCVGIPTEWSVVEDLPEGPAVKIGENKDAMDGWFRLERVSDDEFNNYKLVFCPQQAEDDKCGDIGISIDHDDGTRRLVVSKNKPLVVQFQKLDKESL
For the molecule B3, in data set [1], the “inhibition of the protease (in words)” value was “not inhibited” and the “Relative Activity (%)” value is on record as 100%.
